Columns and labels:
[1] = system: ZFR11 (Zinc Finger 11-HP1a-KRAB) (synthetic); assay: cell_activity; settings: N2A cells, transfection, qPCR; indirect (repression); text labels ZFR11 as SEQ 10 but the listing gives Zinc Finger 11-HP1a-KRAB as SEQ 11
[2] = system: ZFR3 (Zinc Finger 3-HP1a-KRAB) (synthetic); assay: cell_activity; settings: N2A cells, transfection, qPCR; indirect (repression); text labels ZFR3 as SEQ 11 but the listing gives Zinc Finger 3-HP1a-KRAB as SEQ 10
ZFR3 (Zinc Finger 3-HP1a-KRAB) (synthetic), sequence (chain, as listed by the source): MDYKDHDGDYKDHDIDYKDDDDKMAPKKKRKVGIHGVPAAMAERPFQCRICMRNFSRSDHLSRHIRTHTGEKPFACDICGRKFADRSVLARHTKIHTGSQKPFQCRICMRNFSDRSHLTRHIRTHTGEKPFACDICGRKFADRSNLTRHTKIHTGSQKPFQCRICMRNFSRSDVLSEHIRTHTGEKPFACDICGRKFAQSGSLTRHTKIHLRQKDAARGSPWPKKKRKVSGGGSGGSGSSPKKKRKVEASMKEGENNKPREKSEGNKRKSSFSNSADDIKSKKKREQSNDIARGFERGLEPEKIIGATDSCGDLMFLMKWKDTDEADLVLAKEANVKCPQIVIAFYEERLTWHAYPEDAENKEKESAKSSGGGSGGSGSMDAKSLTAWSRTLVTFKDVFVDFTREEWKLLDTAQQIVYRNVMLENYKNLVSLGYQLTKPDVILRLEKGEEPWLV

ZFR11 (Zinc Finger 11-HP1a-KRAB) (synthetic), sequence (chain, as listed by the source): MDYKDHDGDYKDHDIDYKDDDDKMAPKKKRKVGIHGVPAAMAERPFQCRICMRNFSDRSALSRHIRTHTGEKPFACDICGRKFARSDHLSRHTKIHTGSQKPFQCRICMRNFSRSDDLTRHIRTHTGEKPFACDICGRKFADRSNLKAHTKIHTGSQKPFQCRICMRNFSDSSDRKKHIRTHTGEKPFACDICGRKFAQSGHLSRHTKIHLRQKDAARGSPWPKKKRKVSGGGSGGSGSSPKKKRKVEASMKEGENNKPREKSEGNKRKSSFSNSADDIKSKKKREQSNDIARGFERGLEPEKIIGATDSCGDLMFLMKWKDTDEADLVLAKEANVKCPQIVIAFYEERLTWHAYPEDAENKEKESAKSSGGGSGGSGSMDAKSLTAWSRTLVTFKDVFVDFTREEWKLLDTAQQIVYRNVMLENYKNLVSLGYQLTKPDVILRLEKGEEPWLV

“mouse Myd88 promoter target region (20 nt target of each ZF not individually printed)” was tested, and the relative Myd88 expression (fold Myd88 expression) [1] was 0.21 and the relative Myd88 expression (fold Myd88 expression) [2] was 0.22.

From US20240336663
